# Test results taken from paper doi:10.1101/2025.06.28.661730.
# Biological target: complement receptor 2 (CR2, CD21) on human follicular dendritic cells (human (endogenous in tonsil FDCs)) (UniProt P20023)
# Sequence (P20023 21-1033): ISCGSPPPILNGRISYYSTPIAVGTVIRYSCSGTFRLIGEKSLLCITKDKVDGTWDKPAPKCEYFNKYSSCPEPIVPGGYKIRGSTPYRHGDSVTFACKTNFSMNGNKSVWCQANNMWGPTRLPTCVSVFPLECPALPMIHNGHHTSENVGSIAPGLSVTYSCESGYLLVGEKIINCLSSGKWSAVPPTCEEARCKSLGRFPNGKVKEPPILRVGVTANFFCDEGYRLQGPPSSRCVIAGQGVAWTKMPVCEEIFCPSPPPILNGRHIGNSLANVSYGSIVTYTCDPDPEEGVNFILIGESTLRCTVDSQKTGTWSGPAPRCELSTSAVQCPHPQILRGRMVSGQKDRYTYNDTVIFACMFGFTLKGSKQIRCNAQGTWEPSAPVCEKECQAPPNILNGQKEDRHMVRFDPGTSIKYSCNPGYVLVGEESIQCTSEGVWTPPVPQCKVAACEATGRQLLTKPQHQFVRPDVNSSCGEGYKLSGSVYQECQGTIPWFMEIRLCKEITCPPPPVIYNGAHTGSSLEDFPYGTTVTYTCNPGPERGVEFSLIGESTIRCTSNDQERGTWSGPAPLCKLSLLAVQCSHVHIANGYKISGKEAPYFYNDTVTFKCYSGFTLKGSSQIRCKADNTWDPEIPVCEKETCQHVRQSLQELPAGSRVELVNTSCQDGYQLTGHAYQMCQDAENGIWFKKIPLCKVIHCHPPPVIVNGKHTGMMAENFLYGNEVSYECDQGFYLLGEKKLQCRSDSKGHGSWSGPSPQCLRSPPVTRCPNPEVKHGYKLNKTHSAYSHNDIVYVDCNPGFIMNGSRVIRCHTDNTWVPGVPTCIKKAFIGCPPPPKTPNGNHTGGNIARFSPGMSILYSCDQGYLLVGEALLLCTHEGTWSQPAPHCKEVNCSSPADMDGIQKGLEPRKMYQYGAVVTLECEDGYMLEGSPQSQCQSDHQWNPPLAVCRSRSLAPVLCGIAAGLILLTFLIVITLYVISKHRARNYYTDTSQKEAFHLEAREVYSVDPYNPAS
substance,measurement,value
ConM SOSIP.v7 Env trimer fused to human complement fragment C3d (from UniProt P01024 1002-1303),"Ca2+ flux of PGT121-expressing Ramos B cells, AUC at 0.01 µg/ml Env-equivalent (tested at 10, 1, 0.1, 0.01 and 0.001 µg/ml); ConM Env alone gave AUC 5",442 AUC
